Values of other authors, collected in US10195287B2, “Biologically active insulin derivatives” (Chemical & Biopharmaceutical Laboratories of Patras S.A., priority 2013, dated 2019).

Biological target: human receptor (Homo sapiens, UniProt P06213)
Details: compared with human insulin

| activity on the human receptor | Substance |
| --- | --- |
| approximately the same strength | Porcine insulin: animal insulin with a single amino acid variation from the human variety |
| approximately the same strength | bovine insulin: animal insulin that varies from human insulin by three amino acids |
